Test results as given in patent publication US10800847.

How the values were obtained:
[1] = target: HLA-Cw*0202 (Cw2) (human); assay: Luminex, iBeads (#6), 1:4
[2] = target: HLA-Cw*0302 (Cw10) (human); assay: Luminex, iBeads (#6), 1:4
[3] = target: HLA-A*2902 (A29) single antigen on beads (human); assay: Luminex iBeads (#6), IVIg 1:4
[4] = target: HLA-A*3001 (A30) single antigen on beads (human); assay: Luminex iBeads (#6), IVIg 1:4
[5] = target: HLA-A*3002 (A30) single antigen on beads (human); assay: Luminex iBeads (#6), IVIg 1:4
[6] = target: HLA-A*3101 (A31) single antigen on beads (human); assay: Luminex iBeads (#6), IVIg 1:4
[7] = target: HLA-A*3201 (A32) single antigen on beads (human); assay: Luminex iBeads (#6), IVIg 1:4
[8] = target: HLA-A*3301 (A33) single antigen on beads (human); assay: Luminex iBeads (#6), IVIg 1:4
[9] = target: HLA-A*3303 (A33) single antigen on beads (human); assay: Luminex iBeads (#6), IVIg 1:4
[10] = target: HLA-A*3402 (A34) single antigen on beads (human); assay: Luminex iBeads (#6), IVIg 1:4
[11] = target: HLA-A*3601 (A36) single antigen on beads (human); assay: Luminex iBeads (#6), IVIg 1:4
[12] = target: HLA-A*4301 (A43) single antigen on beads (human); assay: Luminex iBeads (#6), IVIg 1:4
[13] = target: HLA-A*6601 (A66) single antigen on beads (human); assay: Luminex iBeads (#6), IVIg 1:4
[14] = target: HLA-A*6602 (A66) single antigen on beads (human); assay: Luminex iBeads (#6), IVIg 1:4
[15] = target: HLA-A*6801 (A68) single antigen on beads (human); assay: Luminex iBeads (#6), IVIg 1:4
[16] = target: HLA-Cw*0102 (Cw1) (human); assay: Luminex, iBead vs regular bead MFI, 1:4
[17] = target: HLA-Cw*0302 (Cw10) (human); assay: Luminex, iBead vs regular bead MFI, 1:4
[18] = target: HLA-Cw*0303 (Cw9) (human); assay: Luminex, iBead vs regular bead MFI, 1:4
[19] = target: HLA-Cw*0304 (Cw10) (human); assay: Luminex, iBead vs regular bead MFI, 1:4
[20] = target: HLA-Cw*0401 (Cw4) (human); assay: Luminex, iBead vs regular bead MFI, 1:4
[21] = target: HLA-Cw*0501 (Cw5) (human); assay: Luminex, iBead vs regular bead MFI, 1:4
[22] = target: HLA-Cw*0602 (Cw6) (human); assay: Luminex, iBead vs regular bead MFI, 1:4
[23] = target: HLA-Cw*0702 (Cw7) (human); assay: Luminex, iBead vs regular bead MFI, 1:4
[24] = target: HLA-Cw*0801 (Cw8) (human); assay: Luminex, iBead vs regular bead MFI, 1:4
[25] = target: HLA-Cw*1203 (Cw12) (human); assay: Luminex, iBead vs regular bead MFI, 1:4
[26] = target: HLA-Cw*1402 (Cw14) (human); assay: Luminex, iBead vs regular bead MFI, 1:4
[27] = target: HLA-Cw*1502 (Cw15) (human); assay: Luminex, iBead vs regular bead MFI, 1:4
[28] = target: HLA-Cw*1701 (Cw17) (human); assay: Luminex, iBead vs regular bead MFI, 1:4
HLA-B*0702 (B7) (human) = assay: iBead MFI against regular-bead MFI, IVIg diluted 1:4
HLA-B*0801 (B8) (human) = assay: as above
HLA-B*1301 (B13) (human) = assay: as above
HLA-B*1302 (B13) (human) = assay: as above
HLA-B*1401 (B64) (human) = assay: as above
HLA-B*1402 (B65) (human) = assay: as above
HLA-B*1503 (B72) (human) = assay: as above
HLA-B*1510 (B71) (human) = assay: as above
HLA-B*1511 (B75) (human) = assay: as above
HLA-B*1512 (B76) (human) = assay: as above
HLA-B*1513 (B77) (human) = assay: as above
HLA-B*1516 (B63) (human) = assay: as above
[29] = target: HLA-A*6901 (A69) single antigen on Luminex beads (human); assay: Luminex single antigen bead assay, iBeads (#6), IVIg 1:4
[30] = target: HLA-A*6901 (A69) single antigen on Luminex beads (human); assay: Luminex single antigen bead assay, regular beads (#7), IVIg 1:4
[31] = target: HLA-A*7401 (A74) single antigen on Luminex beads (human); assay: as above
[32] = target: Albumin on negative control beads (serum albumin, HSA/BSA) (human or bovine); assay: Luminex, iBead MFI against regular bead MFI, 1:8
[33] = target: HLA-A*0301 (A3) on single antigen beads (human) (UniProt P04439); assay: Luminex, iBead MFI against regular bead MFI, 1:8

Work on “IVIg Sandoglobulin (Novartis, Basel, Switzerland) (antibody)” yielded an MFI [1] of 719 MFI, an MFI [2] of 522 MFI and an MFI [3] of 932 MFI. For the same substance, the MFI [4] was 540 MFI, the MFI [5] was 526 MFI and the MFI [6] was 295 MFI. It also gave an MFI [7] of 769 MFI, an MFI [8] of 684 MFI and an MFI [9] of 439 MFI. The MFI [10] was 177 MFI, the MFI [11] was 636 MFI and the MFI [12] was 949 MFI. The MFI [13] was 783 MFI, the MFI [14] was 768 MFI and the MFI [15] was 307 MFI. For the same substance, the Difference % [16] was -49%, the Difference % [17] was -49% and the Difference % [18] was -29%. It also gave a Difference % [19] of -38%, a Difference % [20] of -62% and a Difference % [21] of -42%. The Difference % [22] was -60%, the Difference % [23] was -62% and the Difference % [24] was -42%. The Difference % [25] was -35%, the Difference % [26] was -59% and the Difference % [27] was -41%. For the same substance, the Difference % [28] was -29%, the Difference % (iBead vs regular bead) (HLA-B*0702 (B7) (human)) was 41% and the Difference % (iBead vs regular bead) (HLA-B*0801 (B8) (human)) was 18%. It also gave a Difference % (iBead vs regular bead) (HLA-B*1301 (B13) (human)) of -4%, a Difference % (iBead vs regular bead) (HLA-B*1302 (B13) (human)) of 5% and a Difference % (iBead vs regular bead) (HLA-B*1401 (B64) (human)) of -67%. It also gave a Difference % (iBead vs regular bead) (HLA-B*1402 (B65) (human)) of -36%, a Difference % (iBead vs regular bead) (HLA-B*1503 (B72) (human)) of 0% and a Difference % (iBead vs regular bead) (HLA-B*1510 (B71) (human)) of 13%. It also gave a Difference % (iBead vs regular bead) (HLA-B*1511 (B75) (human)) of -13%, a Difference % (iBead vs regular bead) (HLA-B*1512 (B76) (human)) of 199% and a Difference % (iBead vs regular bead) (HLA-B*1513 (B77) (human)) of -19%. The Difference % (iBead vs regular bead) (HLA-B*1516 (B63) (human)) was -5%, the MFI [29] was 788 MFI and the MFI [30] was 470 MFI. It also gave an MFI [31] of 0 MFI.
Work on “Octagam (IVIg, Octapharma, Lachen, Switzerland) (antibody)” yielded a Difference % (iBead against regular bead) [32] of -29% and a Difference % (iBead against regular bead) [33] of -100%.
